These results are taken from patent US20140248666A1 (Amgen, published 2014).

For experiment [1], the target named is T1, human sclerostin, mature form (signal peptide removed) (human, UniProt Q9BQB4 24-213).
T1 construct: 190 amino acid glycoprotein with four disulfide bonds (C1-C5, C2-C6, C3-C7, C4-C8); also called SOST; recombinant human sclerostin
T1 sequence: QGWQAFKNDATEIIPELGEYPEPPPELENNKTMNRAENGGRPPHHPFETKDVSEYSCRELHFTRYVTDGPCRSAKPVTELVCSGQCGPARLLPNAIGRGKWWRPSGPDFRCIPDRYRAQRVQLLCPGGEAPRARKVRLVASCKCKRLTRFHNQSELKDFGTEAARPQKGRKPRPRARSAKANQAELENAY
The experiment is described as follows: Biacore cross-blocking, human sclerostin on CM5 chip; mixed with competitor Ab-3, each 1.3 uM binding sites. On the procedure: (§1) Human sclerostin was coupled to a CM5 Biacore chip using standard amine coupling chemistry to generate a sclerostin coated surface. 300 resonance units of sclerostin were coupled to the surface.
(§2) 20 μL of the test mixture was passed over the sclerostin-coated chip at a flow rate of 10 μL/min and the amount of binding recorded. The chip was then treated with two 60 second pulses of 30 mM HCl to remove all of the bound antibody. A solution containing only one of the antibodies of the test mixture (at 1.3 μM in the same buffer as the test mixture on a binding site basis) was then passed over the chip in the same manner as the test mixture and the amount of binding recorded. The chip was again treated to remove all of the bound antibody and finally a solution containing the other antibody from the test mixture alone (at 1.3 μM in the same buffer as the test mixture on a binding site basis) was passed over the chip and the amount of binding recorded.
(§3) The table below show the results from cross-blocking assays on a range of different antibodies. The values in each square of the table represent the amount of binding (in RU) seen when the antibodies (at 1.3 μM on a binding site basis) or buffer indicated in the top row of the table were mixed with the antibodies (at 1.3 uM on a binding site basis) or buffer indicated in the first column of the table.
For orientation: SPR reads the build-up and loss of mass on a sensor chip optically.

The target in experiment [2] is T1, human sclerostin, mature form (signal …). In words: Biacore cross-blocking, human sclerostin on CM5 chip; mixed with competitor Ab-4, each 1.3 uM binding sites. The method, then: as §1, §2, §3
Experiment [3] has the same target. In words: Biacore cross-blocking, human sclerostin on CM5 chip; mixed with competitor Ab-13, each 1.3 uM binding sites. On the procedure:
as §1
(§4) The antibodies to be tested were diluted to a concentration of 200 ug/ml in HBS-EP buffer (being 10 mM HEPES pH 7.4, 150 mM NaCl, 3 mM EDTA, 0.005% (v/v) Surfactant P20) and then mixed in a one to one molar ratio (on a binding site basis) to generate the test mixture. This test mixture thus contained each antibody at a concentration of 100 ug/ml (1.3 um on a binding site basis). Separate solutions containing each of the antibodies in the test mix alone were also prepared. These solutions contained the individual antibodies in HBS-EP buffer at a concentration of 100 ug/ml (1.3 um on a binding site basis).
as §2

The target is the same in experiment [4]. In words: Biacore cross-blocking, human sclerostin on CM5 chip; mixed with competitor Ab-19, each 1.3 uM binding sites. The method, then:
as §1, §4, §2

For experiment [5] the target is unchanged. The experiment is described as follows: Biacore cross-blocking on human sclerostin; mixture with competitor Ab-3, mean RU against the sum of each alone. On the procedure: as §1, §4, §2
For experiment [6] the target is unchanged. The experiment is described as follows: Biacore cross-blocking on human sclerostin; mixture with competitor Ab-19, mean RU against the sum of each alone. The method, then: as §1, §4, §2
The target of experiment [7] is T2, human sclerostin tryptic peptide T19.2 (Interchain disulfide C2-C6 (Cys71-Cys125 of SEQ ID NO:1): chain 1 pos 7 to chain 2 pos 5.).
T2 construct: Two peptides linked by the C2-C6 disulfide bond
T2 peptide 1: YVTDGPCR
T2 peptide 2: VQLLCPGGEAPR
The experiment is described as follows: Biacore human sclerostin peptide epitope competition binding assay: 2 nM Mab preincubated with 20 nM peptide in solution, then injected over immobilised human sclerostin; unchanged Ru signal means the Mab did not bind the peptide. The method, then:
(§5) Immobilization of mature form human sclerostin to a BIAcore sensor chip (CM5) surface was performed according to manufacturer's instructions. Briefly, carboxyl groups on the sensor chip surfaces were activated by injecting 60 μL of a mixture containing 0.2 M N-ethyl-N′-(dimethylaminopropyl) carbodiimide (EDC) and 0.05 M N-hydroxysuccinimide (NHS). Human sclerostin was diluted in 10 mM sodium acetate, pH 4.0 at a concentration of 20 μg/mL followed by injecting over the activated CM5 surface. Excess reactive groups on the surfaces were deactivated by injecting 60 μL of 1M ethanolamine. Final immobilized levels were ˜5000 resonance units (RU) for the human sclerostin surface. A blank, mock-coupled reference surface was also prepared on the sensor chips.

Experiment [8] deals with T3, human sclerostin tryptic peptide T20.6 (human).
T3 chain 1: DVSEYSCRELHFTR
T3 chain 2: SAKPVTELVCSGQCGPAR
T3 chain 3: WWRPSGPDFRCIPDRYR
T3 chain 4: LVASCKCKRLTR
The experiment is described as above. The method, then:
as §5

In experiment [9] the target is T4, human sclerostin AspN peptide AspN18.6 (FIG. 12 labels it '(Glycopeptide)'. The glycan site is not stated. The only N-X-T sequon is NKT, so the glycosylated residue is probably Asn at chain 1 pos 22, written N.).
T4 peptide: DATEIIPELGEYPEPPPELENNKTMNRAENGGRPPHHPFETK
The description is as above. On the procedure:
as §5

The target in experiment [10] is T1, human sclerostin, mature form (signal …). The experiment is described as follows: Biacore human sclerostin peptide epitope competition binding assay: 2 nM Mab injected over human sclerostin immobilised on a CM5 chip, alone or after preincubation with 20 nM soluble human sclerostin. The method, then:
as §5

In experiment [11] the target is T3, human sclerostin tryptic peptide T20.6. In words: Biacore human sclerostin peptide epitope competition binding assay: 2 nM Mab preincubated with 20 nM peptide in solution, then injected over immobilised human sclerostin; loss of Ru signal means the Mab bound the peptide. The method, then:
as §5

B1: Antibody A (antibody, mouse IgG1, kappa, V domains shown)
VH: QSLEESGGRLVTPGTPLTLTCTASGFSLSSYWMNWVRQAPGEGLEWIGTIDSGGRTDYASWAKGRFTISRTSTTMDLKMTSLTTGDTARYFCARNWNLWGQGTLVTVSS
VL: AQVLTQTPASVSAAVGGTVTINCQSSQSVYDNNWLAWFQQKPGQPPKLLIYDASDLASGVPSRFSGSGSGTQFTLTISGVQCADAATYYCQGAYNDVIYAFGGGTEVVVKR
notes: Rabbit-mouse chimeric antibody; mature chains (signal peptides cleaved off); also called Ab-A; Mab-A
For the molecule B1, the “amount of binding (RU)” value in [1] worked out at 946 RU; in experiment [2], 833 RU; in [3] it was 1080 RU; in experiment [4], 868 RU. The “percentage of the theoretical binding” value in experiment [5] is 93.5%; in experiment [6] it was 65%. Further, the binding result in [7], in experiment [8] and in [9] was “no binding (tested: 20 nM)” in each case.

B2: Antibody B (antibody, mouse IgG1, kappa, V domains shown)
VH: QVTLKESGPGILQPSQTLSLTCSFSGFSLSTSGMGVGWIRHPSGKNLEWLAHIWWDDVKRYNPVLKSRLTISKDTSNSQVFLKIANVDTADTATYYCARIEDFDYDEEYYAMDYWGQGTSVIVSS
VL: QIVLTQSPTIVSASPGEKVTLICSASSSVSFVDWFQQKPGTSPKRWIYRTSNLGFGVPARFSGGGSGTSHSLTISRMEAEDAATYYCQQRSTYPPTFGAGTKLELKR
notes: Mouse antibody; mature chains; also called Ab-B; Mab-B
Take B2: the binding result was “binds” in experiment [10], “no binding (tested: 20 nM)” in experiment [7], “no binding (tested: 20 nM)” in experiment [8] and “no binding (tested: 20 nM)” in [9].

B3: Antibody C (antibody, mouse IgG1, kappa, V domains shown)
VH: EVQLQQSGPELVKPGTSVKMSCKASGYTFTDCYMNWVKQSHGKSLEWIGDINPFNGGTTYNQKFKGKATLTVDKSSSTAYMQLNSLTSDDSAVYYCARSHYYFDGRVPWDAMDYWGQGTSVTVSS
VL: DIVLTQSPASLTVSLGLRATISCKASQSVDYDGDSYMNWYQQKPGQPPKLLIYAASNLESGIPARFSGNGSGTDFTLNIHPVEEEDAVTYYCQQSNEDPWTFGGGTKLEIKR
notes: Mouse antibody; mature chains; also called Ab-C; Mab-C
As to B3, the binding result is on record as “binds” in experiment [10], “binds” in [11], “no binding (tested: 20 nM)” in experiment [7] and “no binding (tested: 20 nM)” in [9].

B4: Antibody D (antibody, mouse IgG1, kappa, V domains shown)
VH: EVQLQQSGPELVTPGASVKISCKASGYTFTDHYMSWVKQSHGKSLEWIGDINPYSGETTYNQKFKGTATLTVDKSSSIAYMEIRGLTSEDSAVYYCARDDYDASPFAYWGQGTLVTVSA
VL: DVQMIQSPSSLSASLGDIVTMTCQASQGTSINLNWFQQKPGKAPKLLIYGSSNLEDGVPSRFSGSRYGTDFTLTISSLEDEDLATYFCLQHSYLPYTFGGGTKLEIKR
notes: Mouse antibody; mature chains; also called Ab-D; Mab-D
In the case of B4, the binding result in [10] is recorded as “binds”; in [11], “binds”; in experiment [7] it was “no binding (tested: 20 nM)”; in [9], “no binding (tested: 20 nM)”.
